In the nanobody polyreactivity screen of Harvey et al. (2022):

Assay: yeast display, Sf9 membrane polyspecificity reagent, FACS + sequencing; frameworks hold sequencing errors
In short: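 Polyreactivity labels are assigned by the sorting gate from which each nanobody was recovered. The gates were low and high (top ~1%), set on anti-HA fluorescence for expression and streptavidin fluorescence for reagent binding. Before sorting, galactose-induced (36–48 hours) yeast display cells were stained for 1 hour at 4 °C with 10% biotinylated, detergent-solubilized Sf9 membrane reagent.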

| Sequence | polyreactivity (PSR sort gate) |
| --- | --- |
| QVQLVESGGGLVQAGGSLRLSCAASGRIFYDNVMGWYRQAPGKERDLVAAISRSGGDTYYADSVKVRFTISRDNAKNTVYLQMNSLKPEDTAVYYCAADIYAFSGLYYYWGQGTQVTVSS | high polyreactivity |
| QVQLVESGGGLVPAGGSLRLSCAASGYTFYFYAMGWYRQAPGKERELVAAITGGGTTSYADSVKGRFTISRDNAKNTVYLQMNSLKPEDTADSYCNVLFADKSDYWGQATQVTVSS | low polyreactivity |
| QVQLVESGGGLVQAGGSLRLSCAASGFIFVRYAMGWYRQAPGKERELVAAITRSGTSTYYADSVKGRFTISRDNAKTTVNLQMNSLKPEDTAVYYCAKEVRSRYGYWGQGTQVTVSS | high polyreactivity |
| QVQLVESGGGLVQAGGSLRLSCAASGLIFWEYAMGWYRPAPGNERELVASITWGGGGTYYADSVKGRFTISRYNAKNTVNLHKNSLKPEDTAVYYSAVGPYYQSTQIYDYWGQGTQVTVSS | low polyreactivity |
| QVQLVESGGGLVQAGGSLRLSCAASGFTFGSNAMGWYRQAPGKERELVAAISYSGTRTYYADSVKGRFTISRDNAKNTVYLQMNRLKPEDTAVNYCAAGFRKTQFNVRYDYWGQGTQVTVSS | high polyreactivity |
| QVQLVESGGGLVQAGGSLRLSCAASGSTFYRYAMGWYRQAPGKERELVATISGGGRTNYADSVKGRFTISRDNAKNTVYLQMNCLKPEDTAVYYCAARGYTGRFSRVNVPFYYWGQGTQVTVSS | high polyreactivity |
| QVQLVESGGGLVQAGGSLRLSCAASGSTFPPNAMGWYRQAPGKERELVAVISNGGSNTRYADSVKGRFTISRDIAKNTVYLQMNSLKPEDTAVYYCAADYEYSGYGYWGQGTQVTVSS | high polyreactivity |
| QVQLVESGGGLVQAGGSLRLICAASGLTFKSNTMGWYRQAPGKERELVAAISRSGGRTYYADSVKGRFTLSRDNAKNTVYLQMNSLKPEDTAVYYCAALYHTYLTWREDYWGQGTQVTVSS | high polyreactivity |
| QVQLVESGGGLVQAGGSLRLSCAASGRIFKFYDMGWYREAPGKERELVAAISHAGRTNYADSVKGRFTISRDNAKNTVYLQMNSLKPEDTAVYYCNTDYILVRGVPWYYKLDYWGQGTQVTVSS | high polyreactivity |
| QVQLVESGGGLVQAGGSLRLSCAASGFIFKYYAMGWYRQAPGKERELVAAISRRGGSTFYADSVKGRFTISRDNAKNTVYLQMNSLKPEDTAVYYCAAYYYYSAYGDDYWGQGTQVTVSS | high polyreactivity |
| QVQLVESGGGLVQAGGSLRLSCAASGRIYCGYTMGWYRPAPGKERELDATITGNGAITRYADSVKGRFTISRDNAKYTVYLQMTSLKPEDTAVYYCAADSGREPKGPFRLTYWGQGTQVTVSS | high polyreactivity |
| QVQVVESGGGLVQAGGSLRLSCAASGSIFAYYAMGWYRQAPGKERELVAVISSDGSTYYADSVKGRFTISRDNAKNTVYLQMNSLKPEDTAVYYCAAYPGKYSRYNYWGQGTQVTVSS | high polyreactivity |
| QVQLVESGGGLVQAGGSLRLSCAASGRIFRYNAKGWYRQAPGKERELVAAISRDGSTYYADSVKGRFTISRDNAKNTVYLQMKSLKPEDTAVYYCAAGYSRRGWRRAYNYWGQGTQVTVSS | high polyreactivity |
| QVQLVESGGGLVQAGGSLRLSCAASGFIFYYYAMGWYRQAPGKERELVASISSDGSTYYADSVKGRFTISRDNAKNTVYLQMNSLKPEDTAVYYCNADRYYPDDLSDGVGTYDYWGQGTQVTVSS | low polyreactivity |
| QVQLVESGGCLVQAGGSLRLSCAASGSIFHPYGMGWYRQAPGKERELVAAITSSGGDTYYADSVKGRFTISRDNAKNTVYLQMNSLKPEDTAVYYCAATGLPGYYAYDYWGQGTQVTVSS | low polyreactivity |
| QVQLVESGGGLVQAGGSLRLSCAASGRTFYVNTMGWYRQAHGKEKDLVARITRGGSTYYADSVKGRFTISRDNAKNTVYLQMNSLKPEDTAVYYCATDHFPVYSTHVIYEFDYWGQGTQVTVSS | low polyreactivity |
| QVQLVESGGGLVQAGGSLRLSCAASGLIFAIYAMGWYRQAPGNERELVAAIRWSGASTYADSVKGRFTISRDNAKNTVYLQMNSLKPEDTAVYYCAADDLLDYDYWGQGTQVTVSS | low polyreactivity |
